Patent US20260325667 (published 2026)

T1: Mouse Tissue Factor (mouse)
T1 chain: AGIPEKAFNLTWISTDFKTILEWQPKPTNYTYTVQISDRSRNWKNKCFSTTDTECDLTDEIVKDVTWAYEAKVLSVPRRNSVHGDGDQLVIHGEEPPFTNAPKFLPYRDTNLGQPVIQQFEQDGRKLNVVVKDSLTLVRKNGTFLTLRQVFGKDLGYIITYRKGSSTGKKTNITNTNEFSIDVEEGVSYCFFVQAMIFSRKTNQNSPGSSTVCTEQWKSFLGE

T2: Cynomolgus Tissue Factor (cynomolgus)
T2 chain: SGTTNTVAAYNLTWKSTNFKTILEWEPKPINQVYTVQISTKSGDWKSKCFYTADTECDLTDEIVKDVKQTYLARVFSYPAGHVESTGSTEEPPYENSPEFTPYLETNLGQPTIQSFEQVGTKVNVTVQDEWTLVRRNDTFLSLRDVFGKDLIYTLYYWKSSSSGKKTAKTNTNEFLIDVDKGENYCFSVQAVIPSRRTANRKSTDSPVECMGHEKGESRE

T3: Human Tissue Factor (human)
T3 chain: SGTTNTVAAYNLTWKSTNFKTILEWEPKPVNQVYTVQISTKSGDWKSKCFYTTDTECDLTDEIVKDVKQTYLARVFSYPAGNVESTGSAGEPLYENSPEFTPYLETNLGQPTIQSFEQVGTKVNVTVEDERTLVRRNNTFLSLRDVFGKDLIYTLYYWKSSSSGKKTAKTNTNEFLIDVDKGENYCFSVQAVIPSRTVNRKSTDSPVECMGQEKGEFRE


Assays:
Mouse Tissue Factor [1] = biological target: T1, Mouse Tissue Factor; experiment: BLI
Cynomolgus Tissue Factor [2] = biological target: T2, Cynomolgus Tissue Factor; experiment: BLI
Human Tissue Factor [3] = biological target: T3, Human Tissue Factor; experiment: BLI
Cynomolgus Tissue Factor [4] = biological target: T2, Cynomolgus Tissue Factor; experiment: BLI, batch 2
Human Tissue Factor [5] = biological target: T3, Human Tissue Factor; experiment: BLI, batch 1
Human Tissue Factor [6] = biological target: T3, Human Tissue Factor; experiment: BLI, batch 2
Mouse Tissue Factor [7] = biological target: T1, Mouse Tissue Factor; experiment: BLI, batch 1
Cynomolgus Tissue Factor [8] = biological target: T2, Cynomolgus Tissue Factor; experiment: BLI, batch 1
Mouse Tissue Factor [9] = biological target: T1, Mouse Tissue Factor; experiment: BLI, batch 2

Row | Kd (Mouse Tissue Factor [1]) | Kd (Cynomolgus Tissue Factor [2]) | Kd (Human Tissue Factor [3]) | Kd (Cynomolgus Tissue Factor [4]) | Kd (Human Tissue Factor [5]) | Kd (Human Tissue Factor [6]) | Kd (Mouse Tissue Factor [7]) | Kd (Cynomolgus Tissue Factor [8]) | Kd (Mouse Tissue Factor [9]) | Binder
1 | 210 µM | 19 µM | 7.1 µM | – | – | – | – | – | – | TF-ADC 6-8 (antibody, ADC, linker-payload conjugated at fGly' in CH1 and C-terminus, DAR about 8) chain 1: not shown chain 2: DIQMTQSPSTLSASVGDRVTITCQASQSINNWLAWYQQKPGKAPKLLIYKAYNLESGVPSRFSGSGSGTEFTLTISSLQPDDFATYYCQLFQSLPPFTFGGGTKVEIKRTVAAPSVFIFPPSDEQLKSGTASVVCLLNNFYPREAKVQWKVDNALQSGNSQESVTEQDSKDSTYSLSSTLTLSKADYEKHKVYACEVTHQGLSSPVTKSFNRGEC
2 | – | – | – | 240 µM | 0.00113 µM | 36 µM | 0.107 µM | 0.000673 µM | 2000 µM | EXMA-006 (antibody, unconjugated TF antibody; representative batches 1 and 2) chain 1: QVQLVQSGAEVKKPGASVKVSCKASGYTFDVYGISWVRQAPGQGLEWMGWIAPYSGNTNYAQKLQGRVTMTTDTSTSTAYMELRSLRSDDTAVYYCARDAGTYSPFGYGMDVWGQGTTVTVSS chain 2: DIQMTQSPSTLSASVGDRVTITCQASQSINNWLAWYQQKPGKAPKLLIYKAYNLESGVPSRFSGSGSGTEFTLTISSLQPDDFATYYCQLFQSLPPFTFGGGTKVEIK
